{"source": "paper PMC7391724", "about": "(Scientific Reports, 2020)", "key": {"KB tumor xenografts": {"system": "KB tumor xenografts", "assay": "KB tumor xenograft in nu/nu rats", "format": "in vivo", "conditions": "EC2629 0.15 µmol/kg iv SIW x 2 weeks", "experimental": "Four- to eight-week-old female nu/nu mice and rats (Harlan Sprague Dawley, Inc.), were maintained on a standard 12-h light–dark cycle and fed ad libitum with a low-folate chow (Harlan Teklad diet #TD.01013, Madison, WI) for the duration of dosing and 1 week post dosing schedule. Mice and rats were then switched to Teklad Global 18% Rodent diet (Harlan Teklad diet #2018S) during the monitoring phase of the study. Parental KB, KB-CR2000 or KB-PR10 cells (1 × 10^6/100 µL per nu/nu mouse and 5 × 10^6/200 µL per nu/nu rat) were injected into the subcutis of the dorsal medial area. Mice were divided into groups of 5 and rats in groups of 3–4, and freshly prepared test articles were injected through the lateral tail vein under sterile conditions in a volume of 200 μL/20 g of PBS. […]\nAnimals in the control groups received no treatment. […] Tumors were measured in two perpendicular directions using Vernier calipers, and their volumes were calculated as V = 0.5 × L × W^2, where L = measurement of longest axis in mm and W = measurement of axis perpendicular to L in mm[16]. As a general measure of gross toxicity, changes in body weights were determined on the same schedule as tumor volume measurements. Survival of animals was monitored daily. […]"}, "[1]": {"assay": "Whole blood stability, human", "format": "in vitro ADME", "conditions": "500 nM, 37 °C, two hours, human blood", "experimental": "(§1) Whole blood and plasma stability were determined for EC2629 and EC2491 at a concentration of 500 nM. Samples were extracted and analyzed using fit-for-purpose bioanalytical methods. EC2629 or EC2491 was spiked into 1 mL whole blood or plasma maintained at 37 °C for 30 min prior to use . Fifty µl aliquots were then removed at defined timepoints and stored in a 1.2 mL extraction plate prior to analysis. Samples were then extracted using protein precipitation with a 3:1 ratio of acetonitrile after addition of internal standard. The supernatant was then transferred to a new plate, evaporated, and reconstituted prior to LC–MS/MS analysis."}, "[2]": {"assay": "Whole blood stability, dog", "format": "in vitro ADME", "conditions": "37 °C, after two hours, read-out: percent remaining in whole blood", "experimental": "as §1"}, "[3]": {"assay": "Plasma pharmacokinetics after intravenous EC2629 in rats", "format": "in vivo", "conditions": "rat", "experimental": "The plasma pharmacokinetics of EC2629 and metabolite EC2491 were evaluated following intravenous administration of EC2629 to male and female rats. The toxicokinetic phase of the study consisted of 5 groups with three animals/gender assigned to the control group, and nine animals/gender assigned to each of the treatment groups. […] Blood samples were collected from Group 0 at 10 min post-dose, and from Groups 1–4 at pre-dose, 2, 10, and 30 min and 1, 2, 8, 12, and 24 h post-dose. Plasma was prepared and analyzed for concentrations of EC2629 and metabolite EC2491. Mean plasma EC2629 and EC2491 concentration–time data for males and females, separately, of Groups 1–4 and were subjected to noncompartmental toxicokinetic evaluations and the results are summarized in Table S3."}, "[4]": {"conditions": "0.1 mg/kg, 0.10 mg/kg iv, female, Group 2"}, "[5]": {"conditions": "0.1 mg/kg, 0.10 mg/kg iv, male, Group 2"}, "[6]": {"conditions": "0.5 mg/kg, 0.50 mg/kg iv, female, Group 4"}, "[7]": {"conditions": "0.5 mg/kg, 0.50 mg/kg iv, male, Group 4"}}, "note": "Read-outs that look alike come from different tables or passages of the source."}
{"smiles": "C=C1C[C@H]2C=Nc3cc(OCCCCCOc4cc(N)c(C(=O)N5CC(=C)C[C@H]5C5OCCN5C(=O)OCC(C)(C)SSCCC(=O)NCCNC(=O)CCOCCOCCOCCOCCNC(=O)CCN5C(=O)CC(SC[C@H](NC(=O)[C@H](CC(=O)O)NC(=O)[C@H](CC(=O)O)NC(=O)[C@H](CCCNC(=N)N)NC(=O)[C@H](CC(=O)O)NC(=O)CC[C@H](NC(=O)c6ccc(NCc7cnc8nc(N)[nH]c(=O)c8n7)cc6)C(=O)O)C(=O)O)C5=O)cc4OC)c(OC)cc3C(=O)N2C1", "note": "(stereo partly drawn) [EC2629]", "values": [{"measurement": "body weight change", "setting": "KB tumor xenografts", "value": "did not lose any significant weight"}, {"measurement": "whole blood stability", "setting": "[1]", "value": "no observed degradation"}, {"measurement": "remaining at 2 h, 500 nM", "setting": "[2]", "value": 75.8, "unit": "%"}, {"measurement": "clearance", "setting": "[3]; both sexes, across 0.05-0.50 mg/kg iv dose groups, males and females, read-out: Clearance (Cl), range", "value": "0.0907 to 0.174", "unit": "L/h/kg"}, {"measurement": "Vd", "setting": "[3]; both sexes, across 0.05-0.50 mg/kg iv dose groups, males and females, read-out: volume of distribution (Vz), range", "value": "0.109 to 0.191", "unit": "L/kg"}, {"measurement": "AUC(0-inf)", "setting": "[3]; 0.05 mg/kg iv, female, Group 1", "value": 0.287, "unit": "µg·h/mL"}, {"measurement": "AUC(0-t)", "setting": "[3]; 0.05 mg/kg iv, female, Group 1", "value": 0.26, "unit": "µg·h/mL"}, {"measurement": "C0", "setting": "[3]; 0.05 mg/kg iv, female, Group 1", "value": 0.662, "unit": "µg/mL"}, {"measurement": "Cmax", "setting": "[3]; 0.05 mg/kg iv, female, Group 1", "value": 0.545, "unit": "µg/mL"}, {"measurement": "Tmax", "setting": "[3]; 0.05 mg/kg iv, female, Group 1", "value": 1.98, "unit": "min"}, {"measurement": "half-life", "setting": "[3]; 0.05 mg/kg iv, female, Group 1", "value": 37.6, "unit": "min"}, {"measurement": "clearance", "setting": "[3]; 0.05 mg/kg iv, female, Group 1, read-out: Cl (converted)", "value": 0.174, "unit": "L/h/kg"}, {"measurement": "Vd", "setting": "[3]; 0.05 mg/kg iv, female, Group 1, read-out: Vz", "value": 0.157, "unit": "L/kg"}, {"measurement": "AUC(0-inf)", "setting": "[3]; 0.05 mg/kg iv, male, Group 1", "value": 0.384, "unit": "µg·h/mL"}, {"measurement": "AUC(0-t)", "setting": "[3]; 0.05 mg/kg iv, male, Group 1", "value": 0.305, "unit": "µg·h/mL"}, {"measurement": "C0", "setting": "[3]; 0.05 mg/kg iv, male, Group 1", "value": 0.669, "unit": "µg/mL"}, {"measurement": "Cmax", "setting": "[3]; 0.05 mg/kg iv, male, Group 1", "value": 0.595, "unit": "µg/mL"}, {"measurement": "Tmax", "setting": "[3]; 0.05 mg/kg iv, male, Group 1", "value": 1.98, "unit": "min"}, {"measurement": "half-life", "setting": "[3]; 0.05 mg/kg iv, male, Group 1", "value": 61.2, "unit": "min"}, {"measurement": "clearance", "setting": "[3]; 0.05 mg/kg iv, male, Group 1, read-out: Cl (converted)", "value": 0.13, "unit": "L/h/kg"}, {"measurement": "Vd", "setting": "[3]; 0.05 mg/kg iv, male, Group 1, read-out: Vz", "value": 0.191, "unit": "L/kg"}, {"measurement": "AUC(0-inf)", "setting": "[3]; [4]", "value": 0.633, "unit": "µg·h/mL"}, {"measurement": "AUC(0-t)", "setting": "[3]; [4]", "value": 0.596, "unit": "µg·h/mL"}, {"measurement": "C0", "setting": "[3]; [4]", "value": 1.57, "unit": "µg/mL"}, {"measurement": "Cmax", "setting": "[3]; [4]", "value": 1.33, "unit": "µg/mL"}, {"measurement": "Tmax", "setting": "[3]; [4]", "value": 1.98, "unit": "min"}, {"measurement": "half-life", "setting": "[3]; [4]", "value": 31.5, "unit": "min"}, {"measurement": "clearance", "setting": "[3]; 0.1 mg/kg, 0.10 mg/kg iv, female, Group 2, read-out: Cl (converted)", "value": 0.158, "unit": "L/h/kg"}, {"measurement": "Vd", "setting": "[3]; 0.1 mg/kg, 0.10 mg/kg iv, female, Group 2, read-out: Vz", "value": 0.12, "unit": "L/kg"}, {"measurement": "AUC(0-inf)", "setting": "[3]; [5]", "value": 0.699, "unit": "µg·h/mL"}, {"measurement": "AUC(0-t)", "setting": "[3]; [5]", "value": 0.617, "unit": "µg·h/mL"}, {"measurement": "C0", "setting": "[3]; [5]", "value": 1.69, "unit": "µg/mL"}, {"measurement": "Cmax", "setting": "[3]; [5]", "value": 1.39, "unit": "µg/mL"}, {"measurement": "Tmax", "setting": "[3]; [5]", "value": 1.98, "unit": "min"}, {"measurement": "half-life", "setting": "[3]; [5]", "value": 42.4, "unit": "min"}, {"measurement": "clearance", "setting": "[3]; 0.1 mg/kg, 0.10 mg/kg iv, male, Group 2, read-out: Cl (converted)", "value": 0.143, "unit": "L/h/kg"}, {"measurement": "Vd", "setting": "[3]; 0.1 mg/kg, 0.10 mg/kg iv, male, Group 2, read-out: Vz", "value": 0.146, "unit": "L/kg"}, {"measurement": "AUC(0-inf)", "setting": "[3]; 0.25 mg/kg iv, female, Group 3", "value": 1.75, "unit": "µg·h/mL"}, {"measurement": "AUC(0-t)", "setting": "[3]; 0.25 mg/kg iv, female, Group 3", "value": 1.64, "unit": "µg·h/mL"}, {"measurement": "C0", "setting": "[3]; 0.25 mg/kg iv, female, Group 3", "value": 3.74, "unit": "µg/mL"}, {"measurement": "Cmax", "setting": "[3]; 0.25 mg/kg iv, female, Group 3", "value": 3.23, "unit": "µg/mL"}, {"measurement": "Tmax", "setting": "[3]; 0.25 mg/kg iv, female, Group 3", "value": 1.98, "unit": "min"}, {"measurement": "half-life", "setting": "[3]; 0.25 mg/kg iv, female, Group 3", "value": 31.8, "unit": "min"}, {"measurement": "clearance", "setting": "[3]; 0.25 mg/kg iv, female, Group 3, read-out: Cl (converted)", "value": 0.143, "unit": "L/h/kg"}, {"measurement": "Vd", "setting": "[3]; 0.25 mg/kg iv, female, Group 3, read-out: Vz", "value": 0.109, "unit": "L/kg"}, {"measurement": "AUC(0-inf)", "setting": "[3]; 0.25 mg/kg iv, male, Group 3", "value": 1.93, "unit": "µg·h/mL"}, {"measurement": "AUC(0-t)", "setting": "[3]; 0.25 mg/kg iv, male, Group 3", "value": 1.67, "unit": "µg·h/mL"}, {"measurement": "C0", "setting": "[3]; 0.25 mg/kg iv, male, Group 3", "value": 4.31, "unit": "µg/mL"}, {"measurement": "Cmax", "setting": "[3]; 0.25 mg/kg iv, male, Group 3", "value": 3.58, "unit": "µg/mL"}, {"measurement": "Tmax", "setting": "[3]; 0.25 mg/kg iv, male, Group 3", "value": 1.98, "unit": "min"}, {"measurement": "half-life", "setting": "[3]; 0.25 mg/kg iv, male, Group 3", "value": 46.2, "unit": "min"}, {"measurement": "clearance", "setting": "[3]; 0.25 mg/kg iv, male, Group 3, read-out: Cl (converted)", "value": 0.129, "unit": "L/h/kg"}, {"measurement": "Vd", "setting": "[3]; 0.25 mg/kg iv, male, Group 3, read-out: Vz", "value": 0.144, "unit": "L/kg"}, {"measurement": "AUC(0-inf)", "setting": "[3]; [6]", "value": 3.54, "unit": "µg·h/mL"}, {"measurement": "AUC(0-t)", "setting": "[3]; [6]", "value": 3.23, "unit": "µg·h/mL"}, {"measurement": "C0", "setting": "[3]; [6]", "value": 7.06, "unit": "µg/mL"}, {"measurement": "Cmax", "setting": "[3]; [6]", "value": 6.07, "unit": "µg/mL"}, {"measurement": "Tmax", "setting": "[3]; [6]", "value": 1.98, "unit": "min"}, {"measurement": "half-life", "setting": "[3]; [6]", "value": 36.7, "unit": "min"}, {"measurement": "clearance", "setting": "[3]; 0.5 mg/kg, 0.50 mg/kg iv, female, Group 4, read-out: Cl (converted)", "value": 0.141, "unit": "L/h/kg"}, {"measurement": "Vd", "setting": "[3]; 0.5 mg/kg, 0.50 mg/kg iv, female, Group 4, read-out: Vz", "value": 0.125, "unit": "L/kg"}, {"measurement": "AUC(0-inf)", "setting": "[3]; [7]", "value": 5.51, "unit": "µg·h/mL"}, {"measurement": "AUC(0-t)", "setting": "[3]; [7]", "value": 5.45, "unit": "µg·h/mL"}, {"measurement": "C0", "setting": "[3]; [7]", "value": 8.45, "unit": "µg/mL"}, {"measurement": "Cmax", "setting": "[3]; [7]", "value": 7.08, "unit": "µg/mL"}, {"measurement": "Tmax", "setting": "[3]; [7]", "value": 1.98, "unit": "min"}, {"measurement": "half-life", "setting": "[3]; [7]", "value": 84, "unit": "min"}, {"measurement": "clearance", "setting": "[3]; 0.5 mg/kg, 0.50 mg/kg iv, male, Group 4, read-out: Cl (converted)", "value": 0.0907, "unit": "L/h/kg"}, {"measurement": "Vd", "setting": "[3]; 0.5 mg/kg, 0.50 mg/kg iv, male, Group 4, read-out: Vz", "value": 0.183, "unit": "L/kg"}]}
